Assay results: patent US20210101982A1 (Seagen, published 2021)
Where a chain is given by its changes, count along the chain named. Values belong to the binder of their own block, whether it stands above or below them.

Legend:
[1] = biological target: PD-L1 on cells (cancer cell lines expressing PD-L1; PD-L1+ aAPC/CHO-K1 cells) (human, UniProt Q9NZQ7 19-290); experiment: cell-based or functional assay
[2] = biological target: T1, human PD-L1 (Acro Biosciences) (human, UniProt Q9NZQ7 19-238); experiment: BLI (Octet Red 384), antibody on sensors, human PD-L1 in solution; head prints x10^3 S^-1, read as x10^-3 as KD = koff/kon requires
T1 construct: Bought protein, used in solution as the analyte in BLI; also called hPD-L1; CD274
T1 sequence (Q9NZQ7 19-238 limits assumed): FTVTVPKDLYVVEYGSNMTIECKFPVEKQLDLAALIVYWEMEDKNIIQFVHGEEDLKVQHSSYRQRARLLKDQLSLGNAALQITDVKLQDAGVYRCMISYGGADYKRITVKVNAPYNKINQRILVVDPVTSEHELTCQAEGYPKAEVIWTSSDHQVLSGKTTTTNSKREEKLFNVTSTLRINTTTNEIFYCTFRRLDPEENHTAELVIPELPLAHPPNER

[3] = biological target: T1, human PD-L1 (Acro Biosciences); experiment: BLI (Octet Red 384), antibody on anti-human Fab-CH1 sensors, human PD-L1 in solution, monovalent;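 note: after association, a 1000 s dissociation phase ran in buffer without PD-L1, on- and off-rate constants came from fitting the binding curves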

PD-L1 on cells (cancer cell lines expressing PD-L1; PD-L1+ aAPC/CHO-K1 cells), sequence (Q9NZQ7 19-290): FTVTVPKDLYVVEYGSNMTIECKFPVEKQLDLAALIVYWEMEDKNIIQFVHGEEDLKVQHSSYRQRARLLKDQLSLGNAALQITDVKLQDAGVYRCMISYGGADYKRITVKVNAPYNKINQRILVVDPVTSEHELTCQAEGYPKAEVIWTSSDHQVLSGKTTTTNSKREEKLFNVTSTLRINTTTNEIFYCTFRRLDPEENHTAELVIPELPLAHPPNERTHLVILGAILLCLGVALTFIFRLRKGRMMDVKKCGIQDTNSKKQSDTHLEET

B1: SG-559-02 - vc-MMAE (antibody, human IgG1, kappa, V domains shown)
VH: QVQLVQSGAEVKKPGSSVKVSCKTSGDTFSTYAISWVRQAPGQGLEWMGGIIPIFGKAHYAQKFQGRVTITADESTSTAYMELSSLRSEDTAVYFCARKFHFVSGSPFGMDVWGQGTTVTVSS
VL: EIVLTQSPATLSLSPGERATLSCRASQSVSSALAWYQQKPGQAPRLLIYDASNRATGIPARFSGSGSGTDFTLTISSLEPEDFAVYYCQQRSNWPTFGQGTKVEIKR
modifications: vc-MMAE drug-linker, average DAR of 4; sites not stated in the example
x50 (50% reduction in viability, CellTiter-Glo, 96 h) on 786-O cells [1]: > 3000 ng/mL
x50 (50% reduction in viability, CellTiter-Glo, 96 h) on BXPC3 cells [1]: 19.1 ng/mL
x50 (50% reduction in viability, CellTiter-Glo, 96 h) on KARPAS 299 cells [1]: 4.44 ng/mL
x50 (50% reduction in viability, CellTiter-Glo, 96 h) on L540CY cells [1]: 26 ng/mL
x50 (50% reduction in viability, CellTiter-Glo, 96 h) on MDA-MB-231 cells [1]: 26 ng/mL

B2: SG-559-04 - MP-PEG8-VKG-Camptothecin (antibody, human IgG1, kappa, V domains shown)
VH: B1 VH with P107G
VL: not shown
modifications: MP-PEG8-VKG-Camptothecin drug-linker, average DAR of 8; sites not stated in the example
x50 (50% reduction in viability, CellTiter-Glo, 96 h) on 786-O cells [1]: 190 ng/mL
x50 (50% reduction in viability, CellTiter-Glo, 96 h) on BXPC3 cells [1]: 23.3 ng/mL
x50 (50% reduction in viability, CellTiter-Glo, 96 h) on KARPAS 299 cells [1]: 5.95 ng/mL
x50 (50% reduction in viability, CellTiter-Glo, 96 h) on L540CY cells [1]: 10.7 ng/mL
x50 (50% reduction in viability, CellTiter-Glo, 96 h) on MDA-MB-231 cells [1]: 7.89 ng/mL

B3: SG-559-02 - MP-PEG8-VKG-Camptothecin (antibody, human IgG1, kappa, V domains shown)
VH: B1 VH
VL: B1 VL
modifications: MP-PEG8-VKG-Camptothecin drug-linker, average DAR of 8; sites not stated in the example
x50 (50% reduction in viability, CellTiter-Glo, 96 h) on 786-O cells [1]: 283 ng/mL
x50 (50% reduction in viability, CellTiter-Glo, 96 h) on BXPC3 cells [1]: 20.1 ng/mL
x50 (50% reduction in viability, CellTiter-Glo, 96 h) on KARPAS 299 cells [1]: 6.72 ng/mL
x50 (50% reduction in viability, CellTiter-Glo, 96 h) on L540CY cells [1]: 9.97 ng/mL
x50 (50% reduction in viability, CellTiter-Glo, 96 h) on MDA-MB-231 cells [1]: 10.2 ng/mL

B4: SG-559-04 - vc-MMAE (antibody, human IgG1, kappa, V domains shown)
VH: B1 VH with P107G
VL: not shown
modifications: vc-MMAE drug-linker, average DAR of 4; sites not stated in the example
x50 (50% reduction in viability, CellTiter-Glo, 96 h) on 786-O cells [1]: > 3000 ng/mL
x50 (50% reduction in viability, CellTiter-Glo, 96 h) on BXPC3 cells [1]: 17.3 ng/mL
x50 (50% reduction in viability, CellTiter-Glo, 96 h) on KARPAS 299 cells [1]: 3.42 ng/mL
x50 (50% reduction in viability, CellTiter-Glo, 96 h) on L540CY cells [1]: 33.1 ng/mL
x50 (50% reduction in viability, CellTiter-Glo, 96 h) on MDA-MB-231 cells [1]: 24.3 ng/mL

B5: SG-559-03 - MP-PEG8-VKG-Camptothecin (antibody, human IgG1, kappa, V domains shown)
VH: B1 VH
VL: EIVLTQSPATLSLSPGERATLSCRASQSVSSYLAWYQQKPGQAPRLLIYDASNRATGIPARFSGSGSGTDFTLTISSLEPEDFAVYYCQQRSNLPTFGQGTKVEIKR
modifications: MP-PEG8-VKG-Camptothecin drug-linker, average DAR of 8; sites not stated in the example
x50 (50% reduction in viability, CellTiter-Glo, 96 h) on 786-O cells [1]: 1380 ng/mL
x50 (50% reduction in viability, CellTiter-Glo, 96 h) on BXPC3 cells [1]: 62.5 ng/mL
x50 (50% reduction in viability, CellTiter-Glo, 96 h) on KARPAS 299 cells [1]: 12.2 ng/mL
x50 (50% reduction in viability, CellTiter-Glo, 96 h) on L540CY cells [1]: 13.8 ng/mL
x50 (50% reduction in viability, CellTiter-Glo, 96 h) on MDA-MB-231 cells [1]: 15.1 ng/mL

B6: SG-559-03 - vc-MMAE (antibody, human IgG1, kappa, V domains shown)
VH: B1 VH
VL: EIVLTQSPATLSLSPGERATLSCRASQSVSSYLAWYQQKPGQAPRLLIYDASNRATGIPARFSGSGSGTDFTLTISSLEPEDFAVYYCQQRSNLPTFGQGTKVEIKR
modifications: vc-MMAE drug-linker, average DAR of 4; sites not stated in the example
x50 (50% reduction in viability, CellTiter-Glo, 96 h) on 786-O cells [1]: > 3000 ng/mL
x50 (50% reduction in viability, CellTiter-Glo, 96 h) on BXPC3 cells [1]: 16.4 ng/mL
x50 (50% reduction in viability, CellTiter-Glo, 96 h) on KARPAS 299 cells [1]: 4.14 ng/mL
x50 (50% reduction in viability, CellTiter-Glo, 96 h) on L540CY cells [1]: 20.9 ng/mL
x50 (50% reduction in viability, CellTiter-Glo, 96 h) on MDA-MB-231 cells [1]: 22.9 ng/mL

koff [2]: 0.00162 s⁻¹
Kd [3]: 4.3 nM
kon [3]: 381000 M⁻¹ s⁻¹
B7: SG-559-13 (antibody, human IgG1, kappa, V domains shown)
VH: B1 VH
VL: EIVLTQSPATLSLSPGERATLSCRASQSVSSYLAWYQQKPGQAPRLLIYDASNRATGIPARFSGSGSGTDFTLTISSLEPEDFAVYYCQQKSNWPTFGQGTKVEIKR

koff [2]: 0.0424 s⁻¹
Kd [3]: 119 nM
kon [3]: 357000 M⁻¹ s⁻¹
B8: SG-559-05 (antibody, human IgG1, kappa, V domains shown)
VH: B1 VH with F55A
VL: not shown

koff [2]: 0.00664 s⁻¹
Kd [3]: 25.5 nM
kon [3]: 260000 M⁻¹ s⁻¹
B9: SG-559-09 (antibody, human IgG1, kappa, V domains shown)
VH: B1 VH with H59F
VL: not shown

koff [2]: 0.0219 s⁻¹
Kd [3]: 66.6 nM
kon [3]: 329000 M⁻¹ s⁻¹
B10: SG-559-08 (antibody, human IgG1, kappa, V domains shown)
VH: B1 VH with H59A
VL: not shown

koff [2]: 0.0057 s⁻¹
Kd [3]: 12.5 nM
kon [3]: 456000 M⁻¹ s⁻¹
B11: SG-559-17 (antibody, human IgG1, kappa, V domains shown)
VH: B1 VH
VL: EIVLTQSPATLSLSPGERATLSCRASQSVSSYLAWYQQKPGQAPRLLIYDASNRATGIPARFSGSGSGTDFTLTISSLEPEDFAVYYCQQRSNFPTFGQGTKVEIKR

koff [2]: 0.00347 s⁻¹
Kd [3]: 7.5 nM
kon [3]: 462000 M⁻¹ s⁻¹
B12: SG-559-15 (antibody, human IgG1, kappa, V domains shown)
VH: B1 VH
VL: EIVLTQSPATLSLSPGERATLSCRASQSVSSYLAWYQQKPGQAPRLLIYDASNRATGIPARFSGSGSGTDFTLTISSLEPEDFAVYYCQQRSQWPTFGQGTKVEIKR

koff [2]: 0.012 s⁻¹
Kd [3]: 24.5 nM
kon [3]: 490000 M⁻¹ s⁻¹
B13: SG-559-03 (antibody, human IgG1, kappa, V domains shown)
VH: B1 VH
VL: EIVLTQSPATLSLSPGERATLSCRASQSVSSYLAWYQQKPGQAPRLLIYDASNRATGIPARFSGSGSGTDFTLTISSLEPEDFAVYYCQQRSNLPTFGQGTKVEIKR

koff [2]: 0.00284 s⁻¹
Kd [3]: 10 nM
kon [3]: 285000 M⁻¹ s⁻¹
B14: SG-559-07 (antibody, human IgG1, kappa, V domains shown)
VH: B1 VH with K57R
VL: not shown

koff [2]: 0.014 s⁻¹
Kd [3]: 33.3 nM
kon [3]: 420000 M⁻¹ s⁻¹
B15: SG-559-02 (antibody, human IgG1, kappa, V domains shown)
VH: B1 VH
VL: B1 VL

koff [2]: 0.118 s⁻¹
Kd [3]: 288 nM
kon [3]: 410000 M⁻¹ s⁻¹
B16: SG-559-10 (antibody, human IgG1, kappa, V domains shown)
VH: B1 VH with S106A
VL: not shown

koff [2]: 0.00953 s⁻¹
Kd [3]: 24.7 nM
kon [3]: 386000 M⁻¹ s⁻¹
B17: SG-559-16 (antibody, human IgG1, kappa, V domains shown)
VH: B1 VH
VL: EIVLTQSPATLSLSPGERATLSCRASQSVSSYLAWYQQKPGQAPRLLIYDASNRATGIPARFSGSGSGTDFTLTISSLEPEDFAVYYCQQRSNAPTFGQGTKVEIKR

koff [2]: 0.01 s⁻¹
Kd [3]: 25.6 nM
kon [3]: 390000 M⁻¹ s⁻¹
B18: SG-559-04 (antibody, human IgG1, kappa, V domains shown)
VH: B1 VH with P107G
VL: not shown

koff [2]: 0.00355 s⁻¹
Kd [3]: 8.9 nM
kon [3]: 399000 M⁻¹ s⁻¹
B19: SG-559-14 (antibody, human IgG1, kappa, V domains shown)
VH: B1 VH
VL: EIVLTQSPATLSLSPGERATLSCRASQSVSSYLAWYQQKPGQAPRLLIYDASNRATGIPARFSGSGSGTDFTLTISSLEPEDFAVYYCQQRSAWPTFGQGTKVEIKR

koff [2]: 0.025 s⁻¹
Kd [3]: 79.9 nM
kon [3]: 313000 M⁻¹ s⁻¹
B20: SG-559-06 (antibody, human IgG1, kappa, V domains shown)
VH: B1 VH with K57A
VL: not shown
